Assay results published in patent US20260201038A1 (CELLABMED, published 2026).

How the values were obtained:
[1] = molecular target: B7-H3 on human cancer cells (human) (UniProt Q5ZPR3); assay: cell-based or functional assay
[2] = molecular target: T1, recombinant human 2Ig B7-H3 (human, UniProt Q5ZPR3 29-466); assay: indirect ELISA, antigen coated at 1 ug/mL, anti-human Fc-HRP, absorbance at 450 nm
T1 construct: Bought recombinant protein (R&D Systems); also called 2lg B7-H3
T1 sequence: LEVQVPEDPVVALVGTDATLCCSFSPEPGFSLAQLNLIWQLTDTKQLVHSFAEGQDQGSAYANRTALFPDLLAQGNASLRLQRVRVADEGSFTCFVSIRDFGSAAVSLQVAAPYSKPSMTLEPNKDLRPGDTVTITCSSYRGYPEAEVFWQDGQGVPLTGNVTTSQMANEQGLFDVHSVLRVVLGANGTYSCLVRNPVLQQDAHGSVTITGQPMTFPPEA
Experimental: (§1) The binding ability of 2D IgG prepared in Example 2 for recombinant B7-H3 protein was investigated by indirect ELISA. For indirect ELISA, recombinant human 4lg B7-H3, recombinant human 2lg B7-H3 and recombinant mouse B7-H3 were diluted respectively to 1 μg/mL in 50 μL of PBS and adsorbed overnight onto a 96-well immunoplate (Corning, USA) by storing at 4° C. After reaction with a buffer solution containing 3% bovine serum albumin at room temperature for 1 hour, followed by washing 3 times with a buffer solution containing 0.5% Tween 20, each well was treated with 50 μL of the antibodies diluted serially (0.0001, 0.0003, 0.001, 0.003, 0.01, 0.03, 0.1, 0.3, 1, 3 and 10 nM). For antigen-antibody binding, the mixture was reacted at room temperature for 2 hours, and then washed 3 times with a buffer solution containing 0.5% Tween 20. After treating each well with 50 μL of anti-human immunoglobulin Fc-HRP antibodies (Jackson Immunoresearch, USA) diluted to 1:3,000, reaction was conducted at room temperature for 1 hour. […] As a result of measuring absorbance at 450 nm using a spectrophotometer (Biotek, USA), it was confirmed that 2D IgG binds to B7-H3, and the binding ability was in the order of 4lg B7-H3, 2lg B7-H3 and mouse B7-H3 (FIG. 2a).

[3] = molecular target: T2, recombinant human 4Ig B7-H3 (human, UniProt Q5ZPR3 29-461, limits assumed); assay: as above
T2 construct: Bought recombinant protein (Sino Biological); also called 4lg B7-H3
T2 sequence: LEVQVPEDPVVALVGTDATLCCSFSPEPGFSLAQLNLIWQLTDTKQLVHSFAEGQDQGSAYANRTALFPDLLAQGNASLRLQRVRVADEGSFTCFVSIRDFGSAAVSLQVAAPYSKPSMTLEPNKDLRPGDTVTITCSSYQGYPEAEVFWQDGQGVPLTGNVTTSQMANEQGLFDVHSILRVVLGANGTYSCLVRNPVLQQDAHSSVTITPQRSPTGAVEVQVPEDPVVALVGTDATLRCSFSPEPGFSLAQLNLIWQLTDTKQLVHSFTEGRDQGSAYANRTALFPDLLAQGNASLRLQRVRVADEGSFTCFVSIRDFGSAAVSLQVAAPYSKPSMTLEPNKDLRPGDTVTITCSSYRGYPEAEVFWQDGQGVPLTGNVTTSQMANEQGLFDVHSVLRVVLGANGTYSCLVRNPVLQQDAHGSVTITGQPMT
Experimental: as §1

[4] = molecular target: T3, human 4Ig B7-H3 expressed on Raji cells (human) (UniProt Q5ZPR3); assay: flow cytometry on Raji cells expressing 4Ig B7-H3; the vector control Raji cells show < 2%
T3 sequence: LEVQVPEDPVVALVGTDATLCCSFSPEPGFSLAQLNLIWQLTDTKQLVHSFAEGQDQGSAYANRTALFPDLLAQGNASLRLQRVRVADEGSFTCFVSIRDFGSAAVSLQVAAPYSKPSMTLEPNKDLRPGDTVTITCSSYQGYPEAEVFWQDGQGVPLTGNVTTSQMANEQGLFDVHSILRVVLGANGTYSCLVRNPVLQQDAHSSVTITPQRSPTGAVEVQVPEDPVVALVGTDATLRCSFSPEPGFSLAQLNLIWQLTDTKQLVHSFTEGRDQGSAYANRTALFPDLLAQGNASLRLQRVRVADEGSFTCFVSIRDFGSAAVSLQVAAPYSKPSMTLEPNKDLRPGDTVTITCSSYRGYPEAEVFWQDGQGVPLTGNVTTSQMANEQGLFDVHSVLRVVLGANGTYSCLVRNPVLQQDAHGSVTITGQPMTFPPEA

enoblituzumab with wild-type Fc (antibody)
T cell-mediated A549 cell-killing effect (GFP fluorescence of A549 cells after 48 h co-culture with activated PBMCs; negative control group = 100) [1]: 77.3

B1: 2D IgG (antibody, V domains shown)
VH: AVTLDESGGGLQTPGGGLSLVCKASGFDFSSYPMVWVRQAPGKGLEYVASINSGGSWTGYGAAVKGRATISRDNGQSTVRLQLNNLRAEDTATYYCARAYGAATIDAWGHGTEVIVSS
VL: ALTQPSSVSANLGGTVKITCSGGSIGYGWYQQKAPGSAPVTVIYYNDRRPSDIPSRFSGSKSGSANTLTITGVQADDEAIYYCGSADSSSTYTGIFGAGTTLTVL
notes: Chicken/human chimeric complete antibody (full-length IgG); also called 2D complete antibody; parent antibody (2D)
EC50 (read off the curve) [2]: ~0.2 nM | EC50 (read off the curve) [3]: ~0.006 nM

B2: enoblituzumab (antibody, part only; not given: Constant regions, V domains shown, not shown: another chain or arm of the molecule)
VH: EVQLVESGGGLVQPGGSLRLSCAASGFTFSSFGMHWVRQAPGKGLEWVAYISSDSSAIYYADTVKGRFTISRDNAKNSLYLQMNSLRDEDTAVYYCGRGRENIYYGSRLDYWGQGTTVTVSS
VL: DIQLTQSPSFLSASVGDRVTITCKASQNVDTNVAWYQQKPGKAPKALIYSASYRYSGVPSRFSGSGSGTDFTLTISSLQPEDFATYYCQQYNNYPFTFGQGTKLEIK
% of cells in the positive gate (P3) [4]: > 70%
